{"source": "paper PMC3974617", "about": "(Developmental cell, 2013)", "target": "the molecule itself", "experiment": "negative-stain EM"}
{"protein": "full-length recombinant human VPS41 (His-hVPS41) (natural protein, UniProt P49754 1-854, looked up) MAEAEEQETGSLEESTDESEEEESEEEPKLKYERLSNGVTEILQKDAASCMTVHDKFLALGTHYGKVYLLDVQGNITQKFDVSPVKINQISLDESGEHMGVCSEDGKVQVFGLYSGEEFHETFDCPIKIIAVHPHFVRSSCKQFVTGGKKLLLFERSWMNRWKSAVLHEGEGNIRSVKWRGHLIAWANNMGVKIFDIISKQRITNVPRDDISLRPDMYPCSLCWKDNVTLIIGWGTSVKVCSVKERHASEMRDLPSRYVEIVSQFETEFYISGLAPLCDQLVVLSYVKEISEKTEREYCARPRLDIIQPLSETCEEISSDALTVRGFQENECRDYHLEYSEGESLFYIVSPRDVVVAKERDQDDHIDWLLEKKKYEEALMAAEISQKNIKRHKILDIGLAYINHLVERGDYDIAARKCQKILGKNAALWEYEVYKFKEIGQLKAISPYLPRGDPVLKPLIYEMILHEFLESDYEGFATLIREWPGDLYNNSVIVQAVRDHLKKDSQNKTLLKTLAELYTYDKNYGNALEIYLTLRHKDVFQLIHKHNLFSSIKDKIVLLMDFDSEKAVDMLLDNEDKISIKKVVEELEDRPELQHVYLHKLFKRDHHKGQRYHEKQISLYAEYDRPNLLPFLRDSTHCPLEKALEICQQRNFVEETVYLLSRMGNSRSALKMIMEELHDVDKAIEFAKEQDDGELWEDLILYSIDKPPFITGLLNNIGTHVDPILLIHRIKEGMEIPNLRDSLVKILQDYNLQILLREGCKKILVADSLSLLKKMHRTQMKGVLVDEENICESCLSPILPSDAAKPFSVVVFHCRHMFHKECLPMPSMNSAAQFCNICSAKNRGPGSAILEMKK", "values": [{"measurement": "stoichiometry N", "result": 2}]}
